Results as given in US7005283B2, “Cytochrome P450 oxygenases and their uses” (Washington State University Research Foundation, priority 1999, dated 2006).

Assays:
[1] = format: binding, Saccharomyces cerevisiae
Text: CO-sensor of the 19 full-length cytochrome P450 clones from Taxus, thus far obtained, ten have yielded detectable CO-difference spectra (Table 2). […] These alternative expression systems for cytochrome P450 genes include the yeast Pichia pastoris, for which expression vectors and hosts are commercially available (Invitrogen, Carlsbad, Calif.), as well as established E. coli and baculovirus-insect cell systems for which general expression procedures have been described (Barnes, Methods Enzymol. 272:1–14, 1996;Gonzalez et al., Methods Enzymol. 206:93–99, 1991;Lee et al., Methods Enzymol. 272:86–98, 1996;and Lupien et al., Arch. Biochem. Biophys. 368:181–192, 1999).
Appropriate restriction sites were introduced by standard PCR methods (Innis et al., PCR Protocols: A Guide to Methods and Applications, Academic Press, San Diego, Calif., 1990) immediately upstream of the ATG start codon and downstream of the stop codon of all full-length cytochrome P450 clones. These modified amplicons were gel-purified, digested with the corresponding restriction enzymes, and then ligated into the expression vector pYeDP60. The vector/insert junctions were sequenced to ensure that no errors had been introduced by the PCR construction. Verified clones were transformed into yeast using the lithium acetate method (Ito et al., J. Bacteriol. 153:163–168, 1983). Isolated transformants were grown to stationary phase in SGI medium (Pompon et al., Methods Enzymol. 272:51–64, 1996), and used as inocula for a large-scale expression culture grown in YPL medium (Pompon et al., Methods Enzymol. 272:51–64, 1996). Approximately 24 hours after induction of cytochrome P450 expression with galactose (to 10% final concentration), a portion of the yeast cell culture was harvested by centrifugation. One-half of the culture was treated with carbon monoxide, and the cytochrome P450 CO-difference spectrum was recorded directly (using untreated cells as a control) by spectrophotometry (Omura and Sato, J. Biol. Chem. 239:2370–2378, 1964).

[2] = In vivo assay of yeast cells expressing recombinant oxygenases, radio-HPLC, substrate taxadienyl acetate; format: cell-based, Saccharomyces cerevisiae; settings: for product identified HPLC peak: assayed with Taxadienyl Ac, graded symbols, key not given
Experimental: (§1) Transformed yeast cells that functionally express a recombinant cytochrome P450 gene from Taxus (by CO-difference spectrum) were tested in vivo for their ability to oxygenate (hydroxylate or epoxidize) taxoid substrates fed exogenously, thereby eliminating the need for microsome isolation for such a preliminary in vitro assay. […] The ether extracts resulting from these incubations were analyzed by radio-HPLC. Several clones converted the taxadienyl-5α-yl acetate substrate to a more polar product.
(§2) Isolated transformants for each full-length cytochrome P450 clone shown to express a functional enzyme by CO-difference spectrum (ten clones) were grown to stationary phase in 2 mL SGI medium at 30° C. and used to inoculate a 10-mL expression culture (in YPL medium). Approximately 8 hours after induction, cells were harvested by centrifugation (10 minutes at 1500 rpm), and the pellet was resuspended in 2 mL of fresh YPL medium.
(§3) To eliminate additional complication and uncertainty associated with microsome isolations for in vitro assays, 10^6 dpm of [20-^3H3]taxa-4(5),11(12)-diene (16 Ci/mol) or [20-^3H2]taxa-4(20),11(12)-diene-5-α-ol (4.0 Ci/mol), or other taxoid substrate were added directly to the cell suspension to assay conversion in vivo. After 12 hours of incubation at 30° C. with agitation (250 rpm), the mixture was treated for 15 minutes in a sonication bath and extracted 3 times with 2 mL diethyl ether to insure isolation of the biosynthetic products. These ether extracts, containing residual substrate and derived product(s), were concentrated to dryness, resuspended in 200 μL of CH3CN, and filtered. These samples were analyzed by radio-HPLC (Hefner et al., Chemistry and Biology 3:479–489, 1996) using a 4.6 mm i.d.×250 mm column of Econosil C18, 5 μ (Alltech, Deerfield, Ill.) with a gradient of CH3CN in H2O from 0% to 85% (10 minutes at 1 mL/minute), then to 100% CH3CN over 40 minutes.

[3] = In vivo assay of yeast cells expressing recombinant oxygenases, radio-HPLC, substrate taxadien-5α-ol; format: cell-based, Saccharomyces cerevisiae; settings: for product identified HPLC peak: assayed with Taxadien5αol, graded symbols, key not given
Text: (§4) Transformed yeast cells that fimctionally express a recombinant cytochrome P450 gene from Taxus (by CO-difference spectrum) can be tested in vivo for their ability to oxygenate (hydroxylate or epoxidize) taxoid substrates fed exogenously to the cells, thereby eliminating the need for microsome isolation for preliminary in vitro assays.
(§5) Accordingly, several clones of the available full-length clones were expressed in induced yeast host cells.
as §2, §3

[4] = In vivo assay of yeast cells expressing recombinant oxygenases, radio-HPLC, substrate taxadiene; format: cell-based, Saccharomyces cerevisiae; settings: assayed with Taxadiene; graded symbols, key not given
Text: as §4, §5, §2, §3

[5] = In vivo screening of functionally expressed clones in yeast with taxoid substrates (general statements); format: cell-based, Saccharomyces cerevisiae
Text: as §4, §5, §1
as §2, with “medium. […]” for “medium.”

[6] = yeast transformants, radio-HPLC and GC-MS

B1: clone F31: Taxus cuspidata cytochrome P450 oxygenase, full-length clone, SEQ ID NO: 46 (nt) / 59 (aa) (protein, listed as Taxus cuspidata)
chain: MDALSLVNSTVAKFNEVTQLQASPAILSTALTAIAGIIVLLVITSKRRSSLKLPPGKLGLPFIGETLEFVKALRSDTLRQFVEEREGKFGRVFKTSLLGKPTVILCGPAGNRLVLSNEEKLLHVSWSAQIARILGLNSVAVKRGDDHRVLRVALAGFLGSAGLQLYIGKMSALIRNHINEKWKGKDEVNVLSLVRDLVMDNSAILFFNIYDKERKQQLHEILKIILASHFGIPLNIPGFLYRKALKGSLKRKKILSALLEKRKDELRSRLASSNQDLLSVLLSFRDERGKPLSDEAVLDNCFAMLDASYDTTTSQMTLILKMLSSNPECFEKVVQEQLEIASNKKEGEEITMKDIKAMKYTWQVLQESLRMLSPVFGTLRKTMNDINHDGYTIPKGWQVVWTTYSTHQKDIYFKQPDKFMPSRFEEEDGHLDAYTFVPFGGGRRTCPGWEYAKVEILLFLHHFVKAFSGYTPTDPHERICGYPVPLVPVKGFPIKLIARS
Question: With B1 as the molecule, how does the CO diff. spec. [1] read?
Answer: +

Question: And the “product identified HPLC peak” value [2]?
Answer: No

Question: What about the “product identified HPLC peak” value [3] of the same molecule?
Answer: No

Question: What about the “product identified HPLC peak” value [4] of the same molecule?
Answer: No

B2: clone F34: Taxus cuspidata cytochrome P450, outlying full-length clone, SEQ ID NO: 53 (nt) / 66 (aa) (protein, listed as Taxus cuspidata)
chain: MAYPELLENLSGDRAQSPAIAAVLTILFLLGIFYILRGLRNNGRRLPPGPIPWPIVGNLHQLGKLPNRNLEELAKKHGPIMLMKLGSVPAVIVSSSAMAKEVLKTHDLVFASRPESAAGKYIAYNYKDIVFSPYGPYWRQMKKICVVELLNARRIESLRSVREEEVSVIIRSVWEKSKQGAVAVNLSKTLSSLTQGLMLQIFSSNDDGGNSSVTAIKEMMSEVSETAGAFNIGDYFPWMDWMDLQGIQRRMTKAHDYFDQVITKIIEQHQRTRAMEDTQQPKDIIDALLQMENTDGVTITMENIKAVVLGIFLGGAETTSTTLEWAMSAMLENPEVAKKVQEEIESVVGRKRVVKEMIWESMEYLQCVVKKTMRLYPAVPLLIPHESTQDCTVNGYFIPERTRILVNAWAIGKDPNVWDDALAFKPKRFLGXNVDLQKGKEFFDMVPFGAGRKGCPGASMAVVTMEHALAQLMHCFQWRIEGELDMSERLAASVQKKVDLCVLPQWRLTSSP
modifications: X: residue not identified in the source; ends and bridges not checked
Question: Which results are given for B2?
Answer: CO diff. spec. [1]: ++; CO-difference spectrum [1]: reliable CO-difference spectrum; product identified HPLC peak [3]: No; oxygenation of taxoid substrates ([5]; in vivo): does not transform the taxoid substrates to oxygenated products; product identified HPLC peak [4]: No

B3: clone F14: Taxus cuspidata cytochrome P450 taxane 10β-hydroxylase, full-length clone, SEQ ID NO: 51 (nt) / 64 (aa) (protein, listed as Taxus cuspidata)
chain: MDSFIFLRSIGTKFGQLESSPAILSLTLAPILAIILLLLFRYNHRSSVKLPPGKLGFPLIGETIQLLRTLRSETPQKFFDDRLKKFGPVYMTSLIGHPTVVLCGPAGNKLVLSNEDKLVEMEGPKSFMKLIGEDSIVAKRGEDHRILRTALARFLGAQALQNYLGRMSSEIGHHFNEKWKGKDEVKVLPLVRGLIFSIASTLFFDVNDGHQQKQLHHLLETILVGSLSVPLDFPGTRYRKGLQARLKLDEILSSLIKRRRRDLRSGIASDDQDLLSVLLTFRDEKGNSLTDQGILDNFSAMFHASYDTTVAPMALIFKLLYSNPEYHEKVFQEQLEIIGNKKEGEEISWKDLKSMKYTWQAVQESLRMYPPVFGIFRKAITDIHYDGYTIPKGWRVLCSPYTTHLREEYFPEPEEFRPSRFEDEGRHVTPYTYVPFGGGLRTCPGWEFSKIEILLFVHHFVKNFSSYIPVDPNEKVLSDPLPPLPANGFSIKLFPRS
Question: With B3 as the molecule, how does the CO diff. spec. [1] read?
Answer: +++

Question: What about the “product formed from taxadien-5α-yl acetate” value [2, 6] of the same molecule?
Answer: taxadien-diol monoacetate

Question: And the “product formed from taxadien-5α-ol” value [3, 6]?
Answer: diol products

Question: What about the “enzyme function assigned from screening” value ([5]; taxadienol and taxadienyl acetate as test substrates) of the same molecule?
Answer: cytochrome P450 taxane-10β-hydroxylase

Question: What about the “product identified HPLC peak” value [4] of the same molecule?
Answer: No

B4: clone F21: Taxus cuspidata cytochrome P450 oxygenase, full-length clone, SEQ ID NO: 44 (nt) / 57 (aa) (protein, listed as Taxus cuspidata)
chain: MLIEMDTFVQLESSPVLLSLTLTLILLFIFCSKQYRSSLKLPPGNMGFPLIGETIALASQTPDKFFGDRMKKFGKVFKTSLIGHPTIVLCGSSGNRFLLSNEEKLVRMFPPNSSSKLLGQDSVLGKIGEEHRIVRTALARCLGPQALQNYVSKMSSEIQRHINQKWKGKGEVKMLPLIRSLVFSIATSLFFGITDEQQQERLHHLLETVVTGLLCIPLDFPGTTFRKALHARSKLDEIMSSVIERRRNDLRLGAASSDQDLLSVLLTFKDERGNPFADKEILDNFSFLLHALYDTTISPLTLVFKLVSSNPECYENIAQEQLEILRNKKDGEDISWADLKDMKYTWQAVQETLRMCPPVYGNFRKALTDIHYDGYTIPKGWRILCSPYTTHSKEEYFDDPEKFRPSRFEEQGRDVAPYTFIPFGGGLRICPGREFAKMEILVFMHHFVKAFSSFIPVDPNEKISTDPLPSIPVNGFSINLVPRS
Question: Which CO diff. spec. [1] does the source give for B4 here?
Answer: +

Question: What about the “product identified HPLC peak” value [2] of the same molecule?
Answer: No

Question: And the “product identified HPLC peak” value [4]?
Answer: No
